B1: ALSELERVL (peptide)
peptide: ALSELERVL
B2: SLLELDGINLRL (peptide)
peptide: SLLELDGINLRL
B3: LVVDEGSLVSV (peptide)
peptide: LVVDEGSLVSV
notes: also called …
B4: FLPQPVPLSV (peptide)
peptide: FLPQPVPLSV
B5: ALLSPLSLA (peptide)
peptide: ALLSPLSLA
B6: VIFEGEPMYL (peptide)
peptide: VIFEGEPMYL
notes: also called HORMAD1-001
B7: ALSYILPYL (peptide)
peptide: ALSYILPYL
B8: MLIIRVPSV (peptide)
peptide: MLIIRVPSV
B9: AAIEIFEKV (peptide)
peptide: AAIEIFEKV
B10: ALFHMNILL (peptide)
peptide: ALFHMNILL
B11: KMSELQTYV (peptide)
peptide: KMSELQTYV
B12: LLWAPTAQA (peptide)
peptide: LLWAPTAQA
B13: YLMDDFSSL (peptide)
peptide: YLMDDFSSL
notes: also called COL6A3-015
B14: LLFDWSGTGRADA (peptide)
peptide: LLFDWSGTGRADA
B15: LLDDIFIRL (peptide)
peptide: LLDDIFIRL
B16: ALLEQTGDMSL (peptide)
peptide: ALLEQTGDMSL
B17: LLWPSSVPA (peptide)
peptide: LLWPSSVPA
B18: IMPTFDLTKV (peptide)
peptide: IMPTFDLTKV
B19: KQFEGTVEI (peptide)
peptide: KQFEGTVEI
B20: SLLDLVQSL (peptide)
peptide: SLLDLVQSL
B21: ALADLSVAV (peptide)
peptide: ALADLSVAV
B22: LMYPYIYHV (peptide)
peptide: LMYPYIYHV
B23: KLFETVEEL (peptide)
peptide: KLFETVEEL
B24: LLTTVLINA (peptide)
peptide: LLTTVLINA
B25: RLIDIYKNV (peptide)
peptide: RLIDIYKNV
B26: KVWSDVTPL (peptide)
peptide: KVWSDVTPL
notes: also called MMP-002
B27: ALFETLIQL (peptide)
peptide: ALFETLIQL
B28: KLLNMIFSI (peptide)
peptide: KLLNMIFSI
B29: LLGDSSFFL (peptide)
peptide: LLGDSSFFL
B30: VLMQDSRLYL (peptide)
peptide: VLMQDSRLYL
B31: TLGEIIKGV (peptide)
peptide: TLGEIIKGV
B32: NVAEIVIHI (peptide)
peptide: NVAEIVIHI
B33: ALAGIVTNV (peptide)
peptide: ALAGIVTNV
B34: SEWGSPHAAVP (peptide)
peptide: SEWGSPHAAVP
B35: GLQDGFQITV (peptide)
peptide: GLQDGFQITV
B36: SLAGNLQEL (peptide)
peptide: SLAGNLQEL
B37: VIIQNLPAL (peptide)
peptide: VIIQNLPAL
B38: VIIKGLEEITV (peptide)
peptide: VIIKGLEEITV
B39: GLAGDNIYL (peptide)
peptide: GLAGDNIYL
B40: SLLDYEVSI (peptide)
peptide: SLLDYEVSI
B41: SLFESLEYL (peptide)
peptide: SLFESLEYL
notes: also called ZFP42-001
B42: ALHPVQFYL (peptide)
peptide: ALHPVQFYL
B43: LLWGHPRVALA (peptide)
peptide: LLWGHPRVALA
notes: also called MXRA5-003
B44: KLQEEIPVL (peptide)
peptide: KLQEEIPVL
B45: SLSTELFKV (peptide)
peptide: SLSTELFKV
B46: ALINVLNAL (peptide)
peptide: ALINVLNAL
B47: RVIDDSLVVGV (peptide)
peptide: RVIDDSLVVGV
B48: ILAVDGVLSV (peptide)
peptide: ILAVDGVLSV
B49: RLYEEEIRI (peptide)
peptide: RLYEEEIRI

Biological target: T1, HLA-A*02:01 (human)
T1 construct: MHC monomers captured on streptavidin plates; the UV-sensitive peptide is cleaved and exchanged with the test peptide; also called peptide-receptive MHC molecules; MHC class I
Test: UV ligand-exchange ELISA (anti-b2m); +++ = exchange yield >=50
Excerpt: Candidate peptides for T cell based therapies according to the present invention were further tested for their MHC binding capacity (affinity). The individual peptide-MHC complexes were produced by UV-ligand exchange, where a UV-sensitive peptide is cleaved upon UV-irradiation, and exchanged with the peptide of interest as analyzed. Only peptide candidates that can effectively bind and stabilize the peptide-receptive MHC molecules prevent dissociation of the MHC complexes. To determine the yield of the exchange reaction, an ELISA was performed based on the detection of the light chain (β2m) of stabilized MHC complexes. The assay was performed as generally described in Rodenko et al. (Rodenko et al., 2006).
96 well MAXISorp plates (NUNC) were coated over night with 2 ug/ml streptavidin in PBS at room temperature, washed 4× and blocked for 1 h at 37° C. in 2% BSA containing blocking buffer. Refolded HLA-A*02:01/MLA-001 monomers served as standards, covering the range of 15-500 ng/ml. Peptide-MHC monomers of the UV-exchange reaction were diluted 100 fold in blocking buffer. Samples were incubated for 1 h at 37° C., washed four times, incubated with 2 ug/ml HRP conjugated anti-β2m for 1 h at 37° C., washed again and detected with TMB solution that is stopped with […]. Absorption was measured at 450 nm. Candidate peptides that show a high exchange yield (preferably higher than 50%, most preferred higher than 75%) are generally preferred for a generation and production of antibodies or fragments thereof, and/or T cell receptors or fragments thereof, as they show sufficient avidity to the MHC molecules and prevent dissociation of the MHC complexes.

Peptide exchange yield, 50 to 75%:
B1
B2
B3
B4
B5
B6
B7
B8
B9
B10
B11
B12
B13
B14
B15
B16
B17
B18
B19
B20
B21
B22
B23
B24
B25
B26
B27
B28
B29
B30
B31
B32
B33
B34
B35
B36
B37
B38
B39
B40
B41
B42
B43
B44
B45
B46
B47
B48
B49

Source: patent US20160279215A1, “NOVEL PEPTIDES AND COMBINATION OF PEPTIDES FOR USE IN IMMUNOTHERAPY AGAINST VARIOUS TUMORS” (immatics biotechnologies GmbH, priority 2015, published 2016)
